Experimental data reported in publication PMC12102759.

B1: ATXN2 peptide 911-926 (Ataxin-2), 16-mer library wild type / PABPC1 PABC (PABPC1 PABC domain, residues 544-623) (parent)
chain 1: KSTLNPNAKEFNPRSF
chain 2: PLTASMLASAPPQEQKQMLGERLFPLIQAMHPTLAGKITGMLLEIDNSELLHMLESPESLRSKVDEAVAVLQAHQAKEAA
B2: MXI1 peptide 6-21 (Max-interacting protein 1), 16-mer library wild type / SIN3A PAH2 (SIN3A PAH domain, residues 295-383) (parent)
chain 1: MINVQRLLEAAEFLER
chain 2: SLQNNQPVEFNHAINYVNKIKNRFQGQPDIYKAFLEILHTYQKEQRNAKEAGGNYTPALTEQEVYAQVARLFKNQEDLLSEFGQFLPDA
B3: PEX5 peptide 110-125 (Peroxisomal targeting signal 1 receptor), 16-mer library wild type / PEX14 Pex14 (PEX14 PEX14, residues 16-84) (parent)
chain 1: ADLALSENWAQEFLAA
chain 2: TPGSENVLPREPLIATAVKFLQNSRVRQSPLATRRAFLKKKGLTDEEIDMAFQQSGTAADEPSSLGPAT

Variants of: B1
Assay: proteomic peptide phage display deep mutational scan (ProP-PD DMS): M13 P8 16-mer library selected against immobilised GST-tagged bait for four days (rounds), NGS of the eluted pools per day and pseudo-replica
Conditions: with PABPC1 PABC (PABPC1 PABC domain, residues 544-623); bait immobilised on MaxiSorp plates (10 µg), library pre-cleared on GST, 2 h binding at 4 °C, five washes; one round per day, days 1-4; value from days 2 and 3; scale: average fractional NGS count over selection days 2 and 3
With chain 1 KSWLNPNAKEFNPRSF [chain 1 T3W] the screen value was 0.000105.
Work on chain 1 KSQLNPNAKEFNPRSF [chain 1 T3Q] yielded a screen value of 0.
Variant chain 1 KSHLNPNAKEFNPRSF [chain 1 T3H] has a screen value of 8.48e-05.
chain 1 KSFLNPNAKEFNPRSF [chain 1 T3F] was tested, and the screen value was 0.000481.
chain 1 KSELNPNAKEFNPRSF [chain 1 T3E] gave a screen value of 0.00159.
Variant chain 1 KSILNPNAKEFNPRSF [chain 1 T3I] has a screen value of 0.00112.
Work on chain 1 KSGLNPNAKEFNPRSF [chain 1 T3G] yielded a screen value of 0.000528.
chain 1 KSSLNPNAKEFNPRSF [chain 1 T3S] showed a screen value of 0.
chain 1 KSVLNPNAKEFNPRSF [chain 1 T3V] was tested, and the screen value was 0.00143.
In the case of chain 1 KSYLNPNAKEFNPRSF [chain 1 T3Y], the screen value is reported as 3.57e-05.
Work on chain 1 KSMLNPNAKEFNPRSF [chain 1 T3M] yielded a screen value of 0.000543.
Work on chain 1 KSKLNPNAKEFNPRSF [chain 1 T3K] yielded a screen value of 0.
chain 1 KSTLNPNAKEFNPRTF [chain 1 S15T] showed a screen value of 4.17e-05.
For chain 1 KSTLNPNAKEFNPRYF [chain 1 S15Y], the screen value was 0.000151.
chain 1 KSTLNPNAKEFNPRIF [chain 1 S15I] showed a screen value of 0.000221.
chain 1 KSTLNPNAKEFNPRWF [chain 1 S15W] was tested, and the screen value was 5.73e-05.
Work on chain 1 KSTLNPNAKEFNPRVF [chain 1 S15V] yielded a screen value of 0.000546.
Variant chain 1 KSTLNPNAKEFNPRPF [chain 1 S15P] has a screen value of 0.000243.
In the case of chain 1 KSTLNPNAKEFNPRLF [chain 1 S15L], the screen value is reported as 0.00242.
For chain 1 KSTLNPNAKEFNPRNF [chain 1 S15N], the screen value was 0.000583.
chain 1 KSTLNPNAKEFNPRQF [chain 1 S15Q] was tested, and the screen value was 0.

Variants of: B2
Assay: as above
Conditions: with SIN3A PAH2 (SIN3A PAH domain, residues 295-383); bait immobilised on MaxiSorp plates (10 µg), library pre-cleared on GST, 2 h binding at 4 °C, five washes; one round per day, days 1-4; value from days 2 and 3; keep out of graded; scale: average fractional NGS count over selection days 2 and 3
chain 1 AINVQRLLEAAEFLER [chain 1 M1A] gave a screen value of 6.67e-05.
With chain 1 TINVQRLLEAAEFLER [chain 1 M1T] the screen value was 0.
Work on chain 1 LINVQRLLEAAEFLER [chain 1 M1L] yielded a screen value of 3.46e-05.
Variant chain 1 HINVQRLLEAAEFLER [chain 1 M1H] has a screen value of 8.47e-05.
In the case of chain 1 MIQVQRLLEAAEFLER [chain 1 N3Q], the screen value is reported as 5.31e-05.
chain 1 MIRVQRLLEAAEFLER [chain 1 N3R] gave a screen value of 4.48e-05.
With chain 1 MIAVQRLLEAAEFLER [chain 1 N3A] the screen value was 0.
Variant chain 1 MINVQTLLEAAEFLER [chain 1 R6T] has a screen value of 0.
For chain 1 MINVQDLLEAAEFLER [chain 1 R6D], the screen value was 5.76e-05.
chain 1 MINVQFLLEAAEFLER [chain 1 R6F] gave a screen value of 4.27e-05.
In the case of chain 1 MINVQMLLEAAEFLER [chain 1 R6M], the screen value is reported as 6.6e-05.
Variant chain 1 MGNVQRLLEAAEFLER [chain 1 I2G] has a screen value of 6.22e-05.
In the case of chain 1 MKNVQRLLEAAEFLER [chain 1 I2K], the screen value is reported as 0.
chain 1 MINVQRLREAAEFLER [chain 1 L8R] showed a screen value of 4.34e-05.
Work on chain 1 MINVQRLNEAAEFLER [chain 1 L8N] yielded a screen value of 7.15e-05.
chain 1 MINVQRLAEAAEFLER [chain 1 L8A] was tested, and the screen value was 2.84e-05.
Variant chain 1 MINVQRLWEAAEFLER [chain 1 L8W] has a screen value of 6.64e-05.
chain 1 MINVQRLFEAAEFLER [chain 1 L8F] gave a screen value of 7.63e-05.
For chain 1 MINVQRLLEAAEILER [chain 1 F13I], the screen value was 1.91e-05.
chain 1 MINVQRLLEAAEPLER [chain 1 F13P] was tested, and the screen value was 4.79e-05.
chain 1 MINVQRLLEMAEFLER [chain 1 A10M] gave a screen value of 1.91e-05.
In the case of chain 1 MINVQRLLEIAEFLER [chain 1 A10I], the screen value is reported as 4.73e-05.
For chain 1 MINVQRLLEQAEFLER [chain 1 A10Q], the screen value was 0.
Variant chain 1 MINVQRLLEHAEFLER [chain 1 A10H] has a screen value of 2.36e-05.
chain 1 MINVQRLLERAEFLER [chain 1 A10R] gave a screen value of 0.
With chain 1 MINVDRLLEAAEFLER [chain 1 Q5D] the screen value was 0.
For chain 1 MINVPRLLEAAEFLER [chain 1 Q5P], the screen value was 3.48e-05.
With chain 1 MINVWRLLEAAEFLER [chain 1 Q5W] the screen value was 6.78e-05.
Work on chain 1 MINGQRLLEAAEFLER [chain 1 V4G] yielded a screen value of 6.66e-05.
With chain 1 MINPQRLLEAAEFLER [chain 1 V4P] the screen value was 1.91e-05.
chain 1 MINRQRLLEAAEFLER [chain 1 V4R] gave a screen value of 0.
With chain 1 MINMQRLLEAAEFLER [chain 1 V4M] the screen value was 7.16e-05.
chain 1 MINSQRLLEAAEFLER [chain 1 V4S] was tested, and the screen value was 0.
With chain 1 MINEQRLLEAAEFLER [chain 1 V4E] the screen value was 0.
Work on chain 1 MINVQRLLEATEFLER [chain 1 A11T] yielded a screen value of 9.14e-05.
chain 1 MINVQRLLEASEFLER [chain 1 A11S] was tested, and the screen value was 8.92e-05.
chain 1 MINVQRLLEAVEFLER [chain 1 A11V] was tested, and the screen value was 2.84e-05.
chain 1 MINVQRLLEADEFLER [chain 1 A11D] showed a screen value of 0.000105.
For chain 1 MINVQRMLEAAEFLER [chain 1 L7M], the screen value was 0.
Variant chain 1 MINVQRRLEAAEFLER [chain 1 L7R] has a screen value of 0.
Variant chain 1 MINVQRVLEAAEFLER [chain 1 L7V] has a screen value of 6.69e-05.
In the case of chain 1 MINVQRLLEAAEFAER [chain 1 L14A], the screen value is reported as 0.
chain 1 MINVQRLLEAAEFQER [chain 1 L14Q] gave a screen value of 7.31e-05.
In the case of chain 1 MINVQRLLEAAEFFER [chain 1 L14F], the screen value is reported as 3.78e-05.
Variant chain 1 MINVQRLLEAAEFTER [chain 1 L14T] has a screen value of 5.17e-05.

Variants of: B3
Assay: as above
Conditions: with PEX14 Pex14 (PEX14 PEX14, residues 16-84); bait immobilised on MaxiSorp plates (10 µg), library pre-cleared on GST, 2 h binding at 4 °C, five washes; one round per day, days 1-4; value from days 2 and 3; scale: average fractional NGS count over selection days 2 and 3
Variant chain 1 WDLALSENWAQEFLAA [chain 1 A1W] has a screen value of 0.
In the case of chain 1 LDLALSENWAQEFLAA [chain 1 A1L], the screen value is reported as 0.000249.
In the case of chain 1 VDLALSENWAQEFLAA [chain 1 A1V], the screen value is reported as 0.000338.
With chain 1 KDLALSENWAQEFLAA [chain 1 A1K] the screen value was 0.00027.
In the case of chain 1 RDLALSENWAQEFLAA [chain 1 A1R], the screen value is reported as 0.00015.
chain 1 HDLALSENWAQEFLAA [chain 1 A1H] was tested, and the screen value was 0.
chain 1 AFLALSENWAQEFLAA [chain 1 D2F] showed a screen value of 0.
chain 1 AGLALSENWAQEFLAA [chain 1 D2G] showed a screen value of 0.000331.
Work on chain 1 AILALSENWAQEFLAA [chain 1 D2I] yielded a screen value of 0.000253.
For chain 1 ADLALSENWQQEFLAA [chain 1 A10Q], the screen value was 0.
Variant chain 1 ADLALSENWSQEFLAA [chain 1 A10S] has a screen value of 0.000299.
With chain 1 ADLALSENWDQEFLAA [chain 1 A10D] the screen value was 0.
chain 1 ADLALSENWNQEFLAA [chain 1 A10N] gave a screen value of 0.000118.
chain 1 ADLALSENWPQEFLAA [chain 1 A10P] showed a screen value of 0.000417.
chain 1 ADLALSENWMQEFLAA [chain 1 A10M] was tested, and the screen value was 0.
With chain 1 ADLYLSENWAQEFLAA [chain 1 A4Y] the screen value was 0.000159.
chain 1 ADLDLSENWAQEFLAA [chain 1 A4D] was tested, and the screen value was 0.000198.
chain 1 ADLMLSENWAQEFLAA [chain 1 A4M] gave a screen value of 0.000358.
For chain 1 ADLELSENWAQEFLAA [chain 1 A4E], the screen value was 0.000166.
In the case of chain 1 ADLSLSENWAQEFLAA [chain 1 A4S], the screen value is reported as 9.07e-05.
Variant chain 1 ADLGLSENWAQEFLAA [chain 1 A4G] has a screen value of 0.
chain 1 ADLALSENWAQEFLGA [chain 1 A15G] showed a screen value of 9.87e-05.
chain 1 ADLALSENWAQEFLNA [chain 1 A15N] was tested, and the screen value was 0.000268.
In the case of chain 1 ADLALSENWAQEFLSA [chain 1 A15S], the screen value is reported as 0.
chain 1 ADLALSENWAQEFLTA [chain 1 A15T] showed a screen value of 0.000397.
Variant chain 1 ADLALSENWAQEFLEA [chain 1 A15E] has a screen value of 0.000302.
In the case of chain 1 ADLALSENWAQEFLQA [chain 1 A15Q], the screen value is reported as 0.
Variant chain 1 ADLALSENWAQEFLYA [chain 1 A15Y] has a screen value of 9.07e-05.
